Substitutions are numbered along the chain they refer to.
T1: murine OX40 (murine, UniProt P47741 20-211, limits assumed)
T1 sequence (looked up): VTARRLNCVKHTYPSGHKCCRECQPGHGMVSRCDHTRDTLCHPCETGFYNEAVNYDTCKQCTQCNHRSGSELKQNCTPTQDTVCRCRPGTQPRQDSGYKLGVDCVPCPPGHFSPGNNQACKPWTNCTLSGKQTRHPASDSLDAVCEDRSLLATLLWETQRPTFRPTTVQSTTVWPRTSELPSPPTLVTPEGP

T2: OX40 chimera 1545: human OX40 with mouse domains 1B, 2A and 2B (aa 43-107), on FreeStyle 293-F cells (human; mouse, UniProt P47741 39-103)
T2 construct: domain: 1B, 2A and 2B; Limits derived as for 1544
T2 sequence: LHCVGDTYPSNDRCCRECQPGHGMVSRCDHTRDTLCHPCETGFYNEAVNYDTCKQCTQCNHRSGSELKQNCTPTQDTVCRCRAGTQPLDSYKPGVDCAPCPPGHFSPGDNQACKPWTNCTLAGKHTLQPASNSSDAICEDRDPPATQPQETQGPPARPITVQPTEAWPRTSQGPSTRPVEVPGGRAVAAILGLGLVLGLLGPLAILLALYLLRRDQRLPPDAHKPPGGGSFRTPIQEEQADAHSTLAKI

T3: OX40 chimera 1548: human OX40 with mouse module 3 and domains 4A and 4B (aa 108-167), on FreeStyle 293-F cells (human; mouse, UniProt P47741 104-165)
T3 construct: domain: module 3, 4A and 4B; Limits derived as for 1544
T3 sequence: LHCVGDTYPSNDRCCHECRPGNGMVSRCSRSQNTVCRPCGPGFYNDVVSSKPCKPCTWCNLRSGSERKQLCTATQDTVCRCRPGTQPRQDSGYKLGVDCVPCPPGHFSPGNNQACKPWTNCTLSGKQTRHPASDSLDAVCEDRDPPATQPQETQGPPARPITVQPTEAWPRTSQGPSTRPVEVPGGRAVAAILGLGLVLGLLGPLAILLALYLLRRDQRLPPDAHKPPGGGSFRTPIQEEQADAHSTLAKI

T4: OX40 chimera 1546: human OX40 with mouse domains 2A, 2B and module 3 (aa 66-126), on FreeStyle 293-F cells (human; mouse, UniProt P47741 62-124)
T4 construct: domain: 2A, 2B and module 3; Limits derived as for 1544
T4 sequence: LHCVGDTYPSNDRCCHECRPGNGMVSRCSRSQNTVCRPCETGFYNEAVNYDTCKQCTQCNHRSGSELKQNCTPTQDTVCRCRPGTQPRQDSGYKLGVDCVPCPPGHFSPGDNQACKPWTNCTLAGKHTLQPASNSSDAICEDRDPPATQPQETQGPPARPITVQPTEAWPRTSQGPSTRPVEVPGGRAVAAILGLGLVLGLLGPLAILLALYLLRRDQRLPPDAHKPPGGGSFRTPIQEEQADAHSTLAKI

T5: OX40 chimera 1544: human OX40 with mouse domains 1A, 1B and 2A (aa 30-81), on FreeStyle 293-F cells (human; mouse, UniProt P47741 26-77)
T5 construct: domain: 1A, 1B and 2A
T5 sequence: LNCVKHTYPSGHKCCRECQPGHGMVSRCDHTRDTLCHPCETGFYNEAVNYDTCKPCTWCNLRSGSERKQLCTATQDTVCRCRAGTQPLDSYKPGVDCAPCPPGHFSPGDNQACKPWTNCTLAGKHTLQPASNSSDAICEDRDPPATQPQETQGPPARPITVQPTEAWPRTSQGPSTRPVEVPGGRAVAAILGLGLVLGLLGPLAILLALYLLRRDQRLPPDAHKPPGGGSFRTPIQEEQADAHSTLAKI

T6: construct 84: full length OX40 sequence, on FreeStyle 293-F cells (human, UniProt P43489 29-277)
T6 sequence: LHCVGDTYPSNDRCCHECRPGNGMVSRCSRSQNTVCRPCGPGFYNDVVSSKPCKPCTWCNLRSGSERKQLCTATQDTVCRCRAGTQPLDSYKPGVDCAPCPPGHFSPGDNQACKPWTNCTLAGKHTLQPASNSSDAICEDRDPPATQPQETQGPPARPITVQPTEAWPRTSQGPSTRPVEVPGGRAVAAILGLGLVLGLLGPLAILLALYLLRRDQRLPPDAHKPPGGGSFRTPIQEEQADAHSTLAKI

T7: OX40 chimera 1547: human OX40 with mouse domain 2B, module 3 and domain 4A (aa 83-141), on FreeStyle 293-F … (human; mouse, UniProt P47741 79-139)
T7 construct: domain: 2B, module 3 and 4A; Limits derived as for 1544
T7 sequence: T4 sequence with E40G, T41P, E46D, A47V, N49S, Y50S, D51K, T52P, D111N

B1: anti-OX40 antibody 1524/1525 (antibody, V domains shown)
VH: EVQLLESGGGLVQPGGSLRLSCAASGFTFGSYYMGWVRQAPGKGLEWVSSIGSYYGYTYYADSVKGRFTISRDNSKNTLYLQMNSLRAEDTAVYYCARHDYGALDYWGQGTLVTVSS
VL: DIQMTQSPSSLSASVGDRVTITCRASQSISSYLNWYQQKPGKAPKLLIYAASSLQSGVPSRFSGSGSGTDFTLTISSLQPEDFATYYCQQYGPSGLFTFGQGTKLEIK
notes: Tested as IgG
B2: anti-OX40 antibody 1526/1527 (antibody, V domains shown)
VH: EVQLLESGGGLVQPGGSLRLSCAASGFTFSGYSMYWVRQAPGKGLEWVSGIGYSGYGTYYADSVKGRFTISRDNSKNTLYLQMNSLRAEDTAVYYCARYYFHDYAAYSLDYWGQGTLVTVSS
VL: B1 VL with P93S, S94D, G95S, F97L
notes: Tested as IgG
B3: anti-OX40 antibody 1482/1483 (antibody, V domains shown)
VH: EVQLLESGGGLVQPGGSLRLSCAASGFTFSSYAMSWVRQAPGKGLEWVSYISYYSGYTYYADSVKGRFTISRDNSKNTLYLQMNSLRAEDTAVYYCARGYGYLDYWGQGTLVTVSS
VL: DIQMTQSPSSLSASVGDRVTITCRASQSISSYLNWYQQKPGKAPKLLIYAASSLQSGVPSRFSGSGSGTDFTLTISSLQPEDFATYYCQQYGSLLTFGQGTKLEIK
notes: Tested as IgG
B4: anti-OX40 antibody 1168/1135 (antibody, V domains shown)
VH: EVQLLESGGGLVQPGGSLRLSCAASGFTFSGSSMSWVRQAPGKGLEWVSSISYYGGYTYYADSVKGRFTISRDNSKNTLYLQMNSLRAEDTAVYYCARYFPHYYFDYWGQGTLVTVSS
VL: not shown
notes: Tested as IgG
B5: anti-OX40 antibody 1542/1135 (antibody, V domains shown)
VH: EVQLLESGGGLVQPGGSLRLSCAASGFTFGSSSMYWVRQAPGKGLEWVSGIGYYSYSTSYADSVKGRFTISRDNSKNTLYLQMNSLRAEDTAVYYCARGYPHHYFDYWGQGTLVTVSS
VL: not shown
notes: Tested as IgG
B6: anti-OX40 antibody 1164/1135 (antibody, V domains shown)
VH: B5 VH with G30Y, S31G, G52Y, Y53S, Y54S, S55G, Y56G, S57Y, Y100V, H103G
VL: not shown
notes: Tested as IgG

target: T8, CD40 (Ancell) (UniProt P25942 21-193); assay: ELISA
T8 construct: also called CD40-Fc (Ancell #504-820); not shown: Fc part, not described
T8 sequence (P25942 21-193 limits assumed): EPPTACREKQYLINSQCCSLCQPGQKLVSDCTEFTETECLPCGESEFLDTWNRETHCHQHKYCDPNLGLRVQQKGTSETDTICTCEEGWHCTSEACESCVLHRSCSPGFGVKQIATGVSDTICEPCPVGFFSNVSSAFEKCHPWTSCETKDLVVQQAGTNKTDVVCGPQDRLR

Binder	binding result
B1	no binding
B2	no binding
B3	no binding
B4	no binding
B5	no binding
B6	no binding

target: T9, recombinant human CD137-Fc (R&D #838-4B) (human, UniProt Q07011 24-186); assay: ELISA
T9 construct: Bought; also called Human CD137 (R&D systems); CD137 (R&D Systems); not shown: Fc part, not described
T9 sequence (Q07011 24-186 limits assumed): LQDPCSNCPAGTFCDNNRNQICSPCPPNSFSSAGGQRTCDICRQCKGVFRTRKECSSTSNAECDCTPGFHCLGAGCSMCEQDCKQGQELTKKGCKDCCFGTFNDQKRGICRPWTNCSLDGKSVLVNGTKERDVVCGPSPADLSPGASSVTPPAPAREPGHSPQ

Binder	binding result
B1	no binding
B2	no binding
B3	no binding
B4	no binding
B5	no binding
B6	no binding

target: T1, murine OX40; assay: ELISA

Binder	binding result
B1	no binding
B2	no binding
B3	no binding
B4	no binding
B5	no binding
B6	no binding

target: T2, OX40 chimera 1545: human OX40 with …; assay: flow cytometry, 293-F transfectants
Method: (§1) The mouse/human chimeras were transiently transfected into FreeStyle 293-F cells (Invitrogen), incubated 48 hours in FreeStyle 293 expression medium (Invitrogen) 37 C, 8% CO₂, 135 rpm. The transfected cells were incubated with human OX40 antibodies, human OX40L (hOX40L, RnD Systems), mouse OX40L (mOX40L, RnD Systems) and controls for 30 min 4° C. and then detected with a-huIgG-PE (Jackson Immunoresearch) 30 min 4° C. Cells were analyzed with FACS Verse (BD Biosciences). Binding to the different chimeric constructs were calculated as relative (mean fluorescence intensity) MFI compared to the binding of the isotype control.

Binder	relative MFI vs isotype control
B1	0.9
B2	1.3
B3	44.4
B4	46.6
B5	40.2
B6	37.3

target: T3, OX40 chimera 1548: human OX40 with …; assay: flow cytometry, 293-F transfectants
Method: as §1

Binder	relative MFI vs isotype control
B1	15.4
B2	12.7
B3	1.1
B4	1
B5	1.2
B6	1

target: T4, OX40 chimera 1546: human OX40 with …; assay: flow cytometry, 293-F transfectants
Method: as §1

Binder	relative MFI vs isotype control
B1	0.9
B2	0.9
B3	0.9
B4	0.9
B5	0.9
B6	0.9

target: T5, OX40 chimera 1544: human OX40 with …; assay: flow cytometry, 293-F transfectants
Method: as §1

Binder	relative MFI vs isotype control
B1	1.5
B2	1.1
B3	8.4
B4	13.2
B5	7.1
B6	14

target: T6, construct 84: full length OX40 …; assay: flow cytometry, 293-F transfectants
Method: as §1

Binder	relative MFI vs isotype control
B1	31.4
B2	21.4
B3	24.9
B4	29.6
B5	29.4
B6	27.5

target: T7, OX40 chimera 1547: human OX40 with …; assay: flow cytometry, 293-F transfectants
Method: as §1

Binder	relative MFI vs isotype control
B1	1
B2	1
B3	1
B4	1
B5	1
B6	1

— US20210238298A1 (ALLIGATOR BIOSCIENCE, published 2021)
